# Assay results taken from patent publication US7252997.
# Tests used:
# [1] = target: AAV2 capsid mutant I-587 (P1 peptide inserted after amino acid 587, VP1 numbering) (adeno-associated virus serotype 2 (AAV2)) (UniProt P03135); test: capsid ELISA with A20 MAb on purified virus stock
# [2] = target: Wild-type AAV2 capsid (adeno-associated virus serotype 2 (AAV2)) (UniProt P03135); test: capsid ELISA with A20 MAb on purified virus stock
substance,measurement,setting,value
A20 monoclonal antibody,titer with A20 capsid ELISA,[1],3e+12 particles/ml
same,titer with A20 capsid ELISA,[2],6e+12 particles/ml
